Source: patent US20250152729A1 (CANCER RESEARCH TECHNOLOGY, published 2025)
Positions count from the first letter of the chain named. Names and notes keep the numbering of the source.

B1: 5Hg4-5Lg4 human Alya IgG1 (antibody, V domains shown)
VH: QVQLVQSGSELKKPGASVKVSCKASGYTFTDYWMHWVRQAPGQGLEWMGAIDTSDSYTSYNQKFKGRFVFSLDTSVSTAYLQICSLKAEDTAVYYCARDYGNFYYYAMDYWGQGTLVTVSS
VL: QSALTQPPSVSGSPGQSVTISCRSSTGAVTTSNYANWYQQPPGTAPKLMIYGTNNRAPGVPDRFSGSKSGNTASLTISGLQAEDEADYYCALWYSNHWVFGGGTKLTVL
notes: Humanised 5E3; human IgG1 Alya constant (239iCys, S442C, EU), lambda light chain; purified, unconjugated
B2: 5Hg4-5Lg1 human Alya IgG1 (antibody, V domains shown)
VH: B1 VH
VL: QAVVTQEPSLTVSPGGTVTLTCRSSTGAVTTSNYANWFQQKPGQAPRTLIYGTNNRAPWTPARFSGSLLGGKAALTLSGAQPEDEAEYYCALWYSNHWVFGGGTKLTVL
notes: as for B1
B3: 5Hg4-5Lg2 human Alya IgG1 (antibody, V domains shown)
VH: B1 VH
VL: B2 VL with S78L
notes: as for B1
B4: 5Hg2-5Lg6 human Alya IgG1 (antibody, V domains shown)
VH: QVQLVQSGAEVKKPGASVKVSCKASGYTFTDYWMHWVRQAPGQRLEWMGAIDTSDSYTSYNQKFKGRVTITRDTSASTAYMELSSLRSEDTAVYYCARDYGNFYYYAMDYWGQGTLVTVSS
VL: SYELTQPSSVSVSPGQTARITCRSSTGAVTTSNYANWFQQKPGQAPVLVIYGTNNRAPGIPERFSGSSSGTTVTLTISGAQVEDEADYYCALWYSNHWVFGGGTKLTVL
notes: as for B1
B5: 5Hg5-5Lg2 human Alya IgG1 (antibody, V domains shown)
VH: EVQLVQSGAEVKKPGESLRISCKGSGYSFTDYWMHWVRQMPGKGLEWMGAIDTSDSYTSYNQKFKGQVTISADKSISTAYLQWSSLKASDTAMYYCARDYGNFYYYAMDYWGQGTLVTVSS
VL: B2 VL with S78L
notes: Humanised 5E3; human IgG1 Alya constant (239iCys, S442C, EU), lambda light chain; purified, unconjugated; also called 5HE5/5Lg2

Tests used:
[1] = molecular target: T1, human SEMA4A expressed on cells (UniProt ID Q9H3S1, isoform 1) (human, UniProt Q9H3S1 33-761); assay: cell-based or functional assay
T1 sequence: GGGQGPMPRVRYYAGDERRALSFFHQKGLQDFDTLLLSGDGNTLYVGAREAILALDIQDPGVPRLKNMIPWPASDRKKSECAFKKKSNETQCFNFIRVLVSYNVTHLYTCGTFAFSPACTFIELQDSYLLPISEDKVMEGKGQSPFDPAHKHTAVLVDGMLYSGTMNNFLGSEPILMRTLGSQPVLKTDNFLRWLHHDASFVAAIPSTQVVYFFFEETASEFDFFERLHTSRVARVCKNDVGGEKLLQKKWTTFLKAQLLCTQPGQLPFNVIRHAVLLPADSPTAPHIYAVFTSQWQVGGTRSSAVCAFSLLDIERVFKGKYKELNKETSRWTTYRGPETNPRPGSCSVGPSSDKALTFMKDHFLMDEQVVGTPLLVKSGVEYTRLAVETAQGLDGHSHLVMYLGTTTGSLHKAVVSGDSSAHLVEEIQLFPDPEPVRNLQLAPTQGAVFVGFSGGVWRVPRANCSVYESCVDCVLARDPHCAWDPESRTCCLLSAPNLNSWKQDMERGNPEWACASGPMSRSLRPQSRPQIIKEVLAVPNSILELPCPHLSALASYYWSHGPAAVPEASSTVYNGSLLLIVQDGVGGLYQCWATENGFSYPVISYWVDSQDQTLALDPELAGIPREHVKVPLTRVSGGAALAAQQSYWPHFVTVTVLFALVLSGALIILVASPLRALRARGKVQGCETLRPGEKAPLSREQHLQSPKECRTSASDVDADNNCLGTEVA

[2] = molecular target: T1, human SEMA4A expressed on cells …; assay: Mirrorball epitope competition on MM.1S cells; competitor: fixed 5E3 mouse IgG1
Source text: The 5E3 epitope competition assay assessed the ability of the un-purified IgGs expressed in a human IgG1 backbone to compete for binding to the mouse 5E3 epitope on human SEMA4A endogenously expressed by MM.1S cells, a human multiple myeloma cell line. The assay utilised a secondary-Alexa Fluor 647 conjugate, 5E3 expressed in a mouse IgG1 (A) backbone (BioLegend®, San Diego, CA, 148402) and a Mirrorball fluorescence cytometer (SPT Labtech, UK). Binding of 5E3 mouse IgG1 to MM.1S cells was measured via an anti-mouse secondary labelled with Alexa Fluor 647 (Invitrogen, A21235) in the presence of a single concentration of each un-purified human IgG1. […] 10 μl undiluted un-purified IgG, contained in Expi293 expression medium (Gibco, UK, A1435101), were added to the assay plate (Greiner Bio-one, UK, 781906), followed by 10 ul of 1.2 nM 5E3 mouse IgG1 and 20 μl MM.1S cell suspension containing 1,500 cells that was spiked with 4 nM anti-mouse Alexa Fluor 647. The assay plate was incubated for 4 hours at room temperature, in the dark prior to reading on a Mirrorball fluorescence cytometer (SPT Labtech, UK) using a 640 nm laser for excitation and measuring emission in the FL-4 channel (650-690 nm). Data was analysed as Count x median mean intensity (x FLU). All dilutions were performed in Hanks' balanced salt solution (Sigma, UK; cat: H8264) containing 0.1% (w/V) BSA (Sigma, UK; cat: A9576). Maximum binding signal was determined by analysing the binding of 5E3 mouse IgG1 to MM.1S cells in the absence of competitor un-purified human IgG1. Background binding signal was determined by analysing the fluorescence generated in the absence of 5E3 mouse IgG1. Data were analysed and graphed using GraphPad Prism software (GraphPad Software, Inc, La Jolla, CA).
Hits from the primary screening were re-formatted into the human Alya IgG1 vector and re-expressed and purified as described in section 4.1. 5E3 epitope competition assay methods are described in section 3.2 and were used to test purified human Alya IgG1s. The purified human Alya IgG1s were diluted to a 4× stock and then serially diluted using 4-fold dilutions to generate a 10 point concentration response curve.

[3] = molecular target: T2, mouse SEMA4A expressed on expi293 cells (UniProt ID Q62178) (mouse, UniProt Q62178 33-760); assay: Mirrorball direct binding, dilution series on expi293 cells transiently transfected with mouse SEMA4A, anti-human Alexa Fluor 647
T2 construct: Transient transfection in expi293 cells
T2 sequence: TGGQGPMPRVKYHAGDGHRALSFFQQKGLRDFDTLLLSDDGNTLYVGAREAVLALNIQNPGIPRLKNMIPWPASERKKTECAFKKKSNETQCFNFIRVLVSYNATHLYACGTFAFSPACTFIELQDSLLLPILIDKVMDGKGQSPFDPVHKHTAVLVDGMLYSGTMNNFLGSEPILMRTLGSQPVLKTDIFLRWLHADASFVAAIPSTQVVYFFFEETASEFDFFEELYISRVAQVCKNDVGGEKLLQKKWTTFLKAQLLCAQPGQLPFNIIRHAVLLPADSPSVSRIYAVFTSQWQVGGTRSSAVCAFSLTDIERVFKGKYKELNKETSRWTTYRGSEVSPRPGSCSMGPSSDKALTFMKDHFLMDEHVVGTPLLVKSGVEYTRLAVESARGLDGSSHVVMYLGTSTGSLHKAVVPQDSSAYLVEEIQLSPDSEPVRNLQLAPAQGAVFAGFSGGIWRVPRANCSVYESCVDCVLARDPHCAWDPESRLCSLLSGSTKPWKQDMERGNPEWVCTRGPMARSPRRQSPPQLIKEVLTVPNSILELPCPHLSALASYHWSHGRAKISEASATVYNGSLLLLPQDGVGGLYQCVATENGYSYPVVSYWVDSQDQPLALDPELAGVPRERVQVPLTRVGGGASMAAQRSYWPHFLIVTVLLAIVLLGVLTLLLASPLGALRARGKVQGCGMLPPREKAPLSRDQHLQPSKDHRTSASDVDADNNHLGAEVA

Binder | IC50 (pM), Fab-ZAP cell kill, NCI-H929 [1] [pM] | Max % Cell Kill, Fab-ZAP, NCI-H929 [1] [%] | IC50 [2] [µM] | binding result [3]
B1 | 119 | 33 | 0.0455 | binds
B2 | 122 | 56 | 0.0097 | binds
B3 | 151 | 58 | 0.0084 | binds
B4 | 42 | 22 | 0.0718 | binds
B5 | 167 | 51 | 0.0149 | binds
